Results on five sequences are retold here after paper PMC8989545.

Series [1] deals with human serum albumin (HSA) (Homo sapiens) (UniProt P02768). Description: flow cytometry on HSA-coated beads. As to conditions: HSA beads: DPBS + 5 mM Mg2+, room temperature, 1 h, beads blocked with BSA/yeast tRNA, cells: DPBS, 4.5 g/L glucose, 5 mM MgCl2, 0.1 mg/ml yeast tRNA, 1 mg/ml ….
For another series, the target named is T1, PTK7 (on HCT116 cells) (UniProt Q13308).
T1 sequence: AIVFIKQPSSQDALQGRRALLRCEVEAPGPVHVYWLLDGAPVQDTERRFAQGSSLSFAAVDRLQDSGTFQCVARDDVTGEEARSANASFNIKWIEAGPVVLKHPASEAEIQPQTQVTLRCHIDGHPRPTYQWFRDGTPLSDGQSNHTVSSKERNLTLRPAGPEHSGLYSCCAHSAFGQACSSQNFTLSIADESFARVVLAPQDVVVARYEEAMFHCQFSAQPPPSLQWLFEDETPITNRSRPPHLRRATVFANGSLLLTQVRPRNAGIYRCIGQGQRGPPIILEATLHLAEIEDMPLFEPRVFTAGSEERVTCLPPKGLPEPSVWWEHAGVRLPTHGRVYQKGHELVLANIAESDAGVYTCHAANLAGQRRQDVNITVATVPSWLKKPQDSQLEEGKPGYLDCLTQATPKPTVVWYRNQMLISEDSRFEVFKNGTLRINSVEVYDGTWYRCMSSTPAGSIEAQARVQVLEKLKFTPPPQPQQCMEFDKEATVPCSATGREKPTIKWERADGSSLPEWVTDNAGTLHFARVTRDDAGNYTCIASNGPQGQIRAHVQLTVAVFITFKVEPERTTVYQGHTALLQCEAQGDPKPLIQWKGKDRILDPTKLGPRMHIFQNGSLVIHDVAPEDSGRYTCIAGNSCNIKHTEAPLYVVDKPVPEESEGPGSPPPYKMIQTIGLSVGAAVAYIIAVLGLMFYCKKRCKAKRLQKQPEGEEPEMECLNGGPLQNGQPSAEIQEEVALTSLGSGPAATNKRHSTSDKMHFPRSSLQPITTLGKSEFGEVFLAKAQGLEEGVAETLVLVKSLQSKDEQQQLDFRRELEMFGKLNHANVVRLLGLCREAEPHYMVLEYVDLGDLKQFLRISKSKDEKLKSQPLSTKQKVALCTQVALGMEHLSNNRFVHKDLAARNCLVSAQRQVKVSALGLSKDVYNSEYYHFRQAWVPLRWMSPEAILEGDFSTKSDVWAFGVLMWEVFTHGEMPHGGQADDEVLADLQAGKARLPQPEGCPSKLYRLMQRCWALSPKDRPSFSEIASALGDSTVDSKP
Briefly: flow cytometry on HCT116 cells. As to conditions: live cells, PTK7 inferred, HSA beads: DPBS + 5 mM Mg2+, room temperature, 1 h, beads blocked with BSA/yeast tRNA, 4.5 g/L glucose, 5 mM MgCl2, 0.1 mg/ml yeast tRNA, 1 mg/ml …. On the technique in general: Flow cytometry measures light scatter and fluorescence of single cells or particles in a stream.

The next series concerns the target T2, EpCAM (on HCT116 cells) (UniProt P16422).
T2 sequence: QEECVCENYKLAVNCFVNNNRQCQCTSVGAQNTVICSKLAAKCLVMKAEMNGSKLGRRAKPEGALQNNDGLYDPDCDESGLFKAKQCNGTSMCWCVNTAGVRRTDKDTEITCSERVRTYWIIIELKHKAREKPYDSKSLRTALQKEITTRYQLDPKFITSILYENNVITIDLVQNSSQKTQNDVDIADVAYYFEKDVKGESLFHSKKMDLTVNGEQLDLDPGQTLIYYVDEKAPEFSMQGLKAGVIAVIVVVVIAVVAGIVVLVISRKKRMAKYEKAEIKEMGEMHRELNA
Description: flow cytometry on HCT116 cells. As to conditions: live cells, EpCAM inferred, HSA beads: DPBS + 5 mM Mg2+, room temperature, 1 h, beads blocked with BSA/yeast tRNA, 4.5 g/L glucose, 5 mM MgCl2, 0.1 mg/ml yeast tRNA, 1 mg/ml ….

Series [2] deals with human serum albumin (HSA) (Homo sapiens) (UniProt P02768). Briefly: flow cytometry. To be noted: N = artificial base F; HSA beads: DPBS + 5 mM Mg2+, room temperature, 1 h, beads blocked with BSA/yeast tRNA; cells: DPBS, 4.5 g/L glucose, 5 mM MgCl2, 0.1 mg/ml yeast tRNA, 1 mg/ml ….

In general, Kd refers to the constant that tells how readily two partners part at equilibrium.

For the sequence “NNATCTAACTGCTGCGCCGCCGGGAAAATACTGTACGGTTAGANN [Sgc8-F20]”, the Kd in series [1] (N = artificial base F) turned out to be 403 nM.
Take “ATCTAACTGCTGCGCCGCCGGGAAAATACTGTACGGTTAGA [Sgc8]”: the Kd with PTK7 (on HCT116 cells) was found to be 3.2 nM.
Consider “NNCACTACAGAGGTTGCGTCTGTCCCACGTTGTCATGGGGGGTTGGCCTGNN [SYL3C-F20]”, for which the Kd was 369 nM in the series with EpCAM (on HCT116 cells) (N = artificial base F) and 1090 nM in series [2].
For the sequence “NNATCTAACTGCTGCGCCGCCGGGANANTANTGTACGGTTAGANN [Sgc8-F23]”, the Kd in the series with PTK7 (on HCT116 cells) (N = artificial base F (3,5-bis(trifluoromethyl)benzene), 7 F) was found to be 17.1 nM; in series [1] (5 mM Mg2+, in the SYL3C section printed as 191.8 nM, N = artificial base F (3,5-bis(trifluoromethyl)benzene), 7 F), 194 nM.
On to “CACTACAGAGGTTGCGTCTGTCCCACGTTGTCATGGGGGGTTGGCCTG [SYL3C]”, for which the Kd with EpCAM (on HCT116 cells) was found to be 321 nM.
